Common to all, as to assay: fluorescence anisotropy
For orientation: In fluorescence polarisation assays a small probe gives low polarisation when free and higher when bound to something large.

Series [1] addresses T1, jRdRp (NS5 RdRp module, wt) (Japanese encephalitis virus strain …, UniProt O90417 2799-3432).
Series [2] deals with T1, jRdRp (NS5 RdRp module, wt). The source holds these as a separate data set.
The target is the same in series [3]. The source holds these as a separate data set.

Read-outs that look alike come from different tables or passages of the source.

Broadly, the Kd is the constant that tells how readily two partners part at equilibrium. A low value points to tighter binding. Turning to AUAAACUUCU (ssRNA) [10mer ssRNA (FR10)], the dissociation constant Kd in series [1] came out at 39.3 ± 2.3 nM; in series [2], 33.9 ± 0.6 nM; in series [3] it was 40.4 ± 2.1 nM.

The record behind these values is publication PMC3936712.
